# Assays:
# [1] = biological target: MbTEC^PH (R28E) (Monosiga brevicollis MX1); test: FP; settings: domain or fragment
# [2] = biological target: MbTEC^PH (PH domain of Monosiga brevicollis TEC, residues 1-174), labelled with Atto488; test: fluorescence anisotropy; settings: parent: 4.0 ± 1.3 µM
# [3] = biological target: MbTEC^PH (PH domain of Monosiga brevicollis TEC, residues 1-174), labelled with Atto488 (Monosiga brevicollis MX1); test: fluorescence polarisation; fluorescence anisotropy; MbTEC^32K constructs serially diluted into 200 nM Atto488-labelled PH domain; 20 mM HEPES pH 7.4, 150 mM NaCl, 2% glycerol, 1 mM TCEP; 21 °C; one-site binding model
# [4] = biological target: MbTEC^PH (R28E) (Monosiga brevicollis MX1); test: as above
substance,measurement,setting,value
"MbTEC^32K (SH3-SH2-kinase module of Monosiga brevicollis TEC, residues 229-667)",Kd,[1],22.4 µM
"MbTEC^32K (SH3-SH2-kinase module of Monosiga brevicollis TEC, residues 229-667) Y579D; R581E",Kd,[2],195 µM
"MbTEC^32K (SH3-SH2-kinase module of Monosiga brevicollis TEC, residues 229-667) (domain or fragment)",Kd,[3],4 µM
same,fold weakening of binding against wild-type MbTEC^PH,[4],5 fold

# From article PMC13648279
